Assay results: patent US20220025021A1 (BETH ISRAEL DEACONESS MEDICAL CENTER, published 2022)
Residue numbers refer to the chain shown, from its start.

B1: MS-78 (antibody, V domains shown)
VH: QVQLVQSGPEVRKPGTSVKVSCKAPGNTLKTYDLHWVRSVPGQGLEWMGWISHEGDKKVIVERFKAKVTIDWDRSTNTAYLQLSGLTSGDTAVYYCAKGSKHRLRDYALYDDDGALNWAVDVDYLSNLEFWGQGTAVTVSS
VL: DFVLTQSPHSLSVTPGESASISCKSSHSLIHGDRNNYLAWYVQKPGRSPQLLIYLASSRASGVPDRFSGSGSDKDFTLKISRVETEDVGTYYCMQGRESPWTFGQGTKVDIKR
B2: MS-80 (antibody, V domains shown)
VH: B1 VH with E46Q, W72R
VL: B1 VL
B3: MS-81 (antibody, V domains shown)
VH: B1 VH with E46Q, Q82E
VL: B1 VL
B4: MS-79 (antibody, V domains shown)
VH: B1 VH with E46Q, D71T
VL: B1 VL

Molecular target: HIV-1 pseudovirus AC10.0.29 (HIV-1)
Assay: cell-based or functional assay

| Binder | IC50 (neutralization in TZM.bl cells) [µg/mL] | IC80 (neutralization in TZM.bl cells) [µg/mL] |
| --- | --- | --- |
| B1 | 0.044 | 0.225 |
| B2 | 0.054 | 0.28 |
| B3 | 0.044 | 0.324 |
| B4 | 0.056 | 0.404 |

Molecular target: HIV-1 pseudovirus SC05.8C11.2344 (HIV-1)
Assay: cell-based or functional assay

| Binder | IC50 (neutralization in TZM.bl cells) [µg/mL] | IC80 (neutralization in TZM.bl cells) [µg/mL] |
| --- | --- | --- |
| B1 | 0.658 | 2.26 |
| B2 | 0.898 | 3.15 |
| B3 | 0.537 | 2.01 |
| B4 | 0.593 | 1.97 |

Molecular target: HIV-1 pseudovirus Ce1176_A3 (HIV-1)
Assay: cell-based or functional assay

| Binder | IC50 (neutralization in TZM.bl cells) [µg/mL] | IC80 (neutralization in TZM.bl cells) [µg/mL] |
| --- | --- | --- |
| B1 | 0.047 | 0.837 |
| B2 | 1.11 | > 25 |
| B3 | 0.044 | 0.646 |
| B4 | 0.473 | 9.05 |

Molecular target: HIV-1 pseudovirus X1193_c1 (HIV-1)
Assay: cell-based or functional assay

| Binder | IC50 (neutralization in TZM.bl cells) [µg/mL] | IC80 (neutralization in TZM.bl cells) [µg/mL] |
| --- | --- | --- |
| B1 | 0.126 | 0.452 |
| B2 | 0.137 | 0.607 |
| B3 | 0.113 | 0.512 |
| B4 | 0.109 | 0.365 |

Molecular target: HIV-1 pseudovirus 6952.v1.c20 (HIV-1)
Assay: cell-based or functional assay

| Binder | IC50 (neutralization in TZM.bl cells) [µg/mL] | IC80 (neutralization in TZM.bl cells) [µg/mL] |
| --- | --- | --- |
| B1 | 0.342 | > 25 |
| B2 | > 25 | > 25 |
| B3 | 0.228 | > 25 |
| B4 | 13.2 | > 25 |

Molecular target: HIV-1 pseudovirus 263-8 (HIV-1)
Assay: cell-based or functional assay

| Binder | IC50 (neutralization in TZM.bl cells) [µg/mL] | IC80 (neutralization in TZM.bl cells) [µg/mL] |
| --- | --- | --- |
| B1 | 0.014 | 0.053 |
| B2 | 0.033 | 0.173 |
| B3 | 0.013 | 0.037 |
| B4 | 0.018 | 0.067 |
